In patent publication US20180355059A1 (PHARMAEXPLORER, published 2018):

Legend:
[1] = target: T1, recombinant cyno monkey PCSK9 protein (cyno monkey, UniProt A8T666 31-692 (rhesus entry), limits assumed, biotin-labelled in the ELISA (Biotin labeling kit)); assay: ELISA, biotin-cyno PCSK9 on streptavidin plate; antibody 6.67 nM
T1 construct: also called cyno PCSK9; Cyno Monkey PCSK9-His
Protocol: (§1) The next day, the plates were washed twice with wash buffer [0.01% (v/v) Tween 20], then blocked with blocking buffer [0.01% (v/v) 0.1% BSA (w/w) Tween 20] at room temperature for 2 hours. […] Unbound PCSK9 proteins were removed by washing the plate three times with wash buffer [0.01% (v/v) Tween 20]. […] The plates were washed twice with wash buffer [0.01% (v/v) Tween 20], and 200 uL HRP-conjugated secondary antibody (Sigma) was added to each well and incubated for 2 hours at 37° C. After the plates were washed three times with wash buffer, 100 ul TMB substrate were added to each well and incubated for 30 minutes at room temperature. 100 ul stop solution (0.1N HCl) were added to each well to stop the reaction.

[2] = target: T2, recombinant human PCSK9 protein, His-tagged (Immunogen A, hPCSK9-His) (human, UniProt Q8NBP7 31-692, limits assumed, biotin-labelled in the ELISA and blocking assays (Biotin labeling kit)); assay: ELISA, biotin-hPCSK9-His on streptavidin plate; antibody 0.00067 nM
T2 construct: also called human PCSK9-His; recombinant hPCSK9-His; not shown: His tag

[3] = target: T2, recombinant human PCSK9 protein, …; assay: blocking ELISA, biotin-hPCSK9-His on coated LDLR ECD-His; antibody 8 nM
Protocol: (§2) Purified LDLR^ECD-His was diluted with PBS to a final concentration of 1.0 ug/ml, and 100 uL of diluted LDLR^ECD-His were added to each well of 96-well plate that was then sealed with plastic film and incubated at 4° C. overnight. The plate was washed twice with wash buffer [PBS+0.01% (v/v) Tween 20] and incubated with blocking buffer [PBS+0.01% (v/v) BSA+1% Tween20 (w/w)] at room temperature for 2 hours. […] The plate was washed three times with wash buffer [0.01% (v/v) Tween 20]. 100 uL HRP-conjugated streptavidin (Sigma) were then added to each well and incubated at 37° C. for 1 hour. The plate was then washed three times with wash buffer, and 100 uL TMB substrate were added to each well. After 15 minutes of incubation at room temperature, the reaction was stopped by adding 50 uL stop solution (0.1N HCl).

[4] = target: T2, recombinant human PCSK9 protein, …; assay: ELISA, biotin-hPCSK9-His on streptavidin plate; antibody 0.067 nM
Protocol: as §1

[5] = target: T1, recombinant cyno monkey PCSK9 protein; assay: ELISA, biotin-cyno PCSK9 on streptavidin plate; antibody 0 nM (blank)
Protocol: as §1

[6] = target: T1, recombinant cyno monkey PCSK9 protein; assay: ELISA, biotin-cyno PCSK9 on streptavidin plate; antibody 0.0067 nM
Protocol: as §1

[7] = target: T2, recombinant human PCSK9 protein, …; assay: ELISA, biotin-hPCSK9-His on streptavidin plate; antibody 0 nM (blank)
Protocol: as §1

[8] = target: T2, recombinant human PCSK9 protein, …; assay: ELISA, biotin-hPCSK9-His on streptavidin plate; antibody 0.0067 nM
Protocol: as §1

[9] = target: T2, recombinant human PCSK9 protein, …; assay: blocking ELISA, biotin-hPCSK9-His on coated LDLR ECD-His; antibody 40 nM
Protocol: as §2

[10] = target: T2, recombinant human PCSK9 protein, …; assay: blocking ELISA, biotin-hPCSK9-His on coated LDLR ECD-His; antibody 0.06 nM
Protocol: as §2

[11] = target: T1, recombinant cyno monkey PCSK9 protein; assay: ELISA, biotin-cyno PCSK9 on streptavidin plate; antibody 0.00067 nM
Protocol: as §1

[12] = target: T2, recombinant human PCSK9 protein, …; assay: blocking ELISA, biotin-hPCSK9-His on coated LDLR ECD-His; antibody 0.01 nM
Protocol: as §2

[13] = target: T2, recombinant human PCSK9 protein, …; assay: ELISA, biotin-hPCSK9-His on streptavidin plate; antibody 0.000067 nM
Protocol: as §1

[14] = target: T1, recombinant cyno monkey PCSK9 protein; assay: ELISA, biotin-cyno PCSK9 on streptavidin plate; antibody 0.000067 nM
Protocol: as §1

[15] = target: T2, recombinant human PCSK9 protein, …; assay: ELISA, biotin-hPCSK9-His on streptavidin plate; antibody 6.67 nM
Protocol: as §1

[16] = target: T1, recombinant cyno monkey PCSK9 protein; assay: ELISA, biotin-cyno PCSK9 on streptavidin plate; antibody 66.67 nM
Protocol: as §1

[17] = target: T2, recombinant human PCSK9 protein, …; assay: ELISA, biotin-hPCSK9-His on streptavidin plate; antibody 0.67 nM
Protocol: as §1

[18] = target: T2, recombinant human PCSK9 protein, …; assay: blocking ELISA, biotin-hPCSK9-His on coated LDLR ECD-His; antibody 0.32 nM
Protocol: as §2

[19] = target: T2, recombinant human PCSK9 protein, …; assay: ELISA, biotin-hPCSK9-His on streptavidin plate; antibody 66.67 nM
Protocol: as §1

[20] = target: T1, recombinant cyno monkey PCSK9 protein; assay: ELISA, biotin-cyno PCSK9 on streptavidin plate; antibody 0.067 nM
Protocol: as §1

[21] = target: T2, recombinant human PCSK9 protein, …; assay: blocking ELISA, biotin-hPCSK9-His on coated LDLR ECD-His; antibody 200 nM
Protocol: as §2

[22] = target: T1, recombinant cyno monkey PCSK9 protein; assay: ELISA, biotin-cyno PCSK9 on streptavidin plate; antibody 0.67 nM
Protocol: as §1

[23] = target: T2, recombinant human PCSK9 protein, …; assay: blocking ELISA, biotin-hPCSK9-His on coated LDLR ECD-His; antibody 1.6 nM
Protocol: as §2

T1 sequence (A8T666 31-692 limits assumed): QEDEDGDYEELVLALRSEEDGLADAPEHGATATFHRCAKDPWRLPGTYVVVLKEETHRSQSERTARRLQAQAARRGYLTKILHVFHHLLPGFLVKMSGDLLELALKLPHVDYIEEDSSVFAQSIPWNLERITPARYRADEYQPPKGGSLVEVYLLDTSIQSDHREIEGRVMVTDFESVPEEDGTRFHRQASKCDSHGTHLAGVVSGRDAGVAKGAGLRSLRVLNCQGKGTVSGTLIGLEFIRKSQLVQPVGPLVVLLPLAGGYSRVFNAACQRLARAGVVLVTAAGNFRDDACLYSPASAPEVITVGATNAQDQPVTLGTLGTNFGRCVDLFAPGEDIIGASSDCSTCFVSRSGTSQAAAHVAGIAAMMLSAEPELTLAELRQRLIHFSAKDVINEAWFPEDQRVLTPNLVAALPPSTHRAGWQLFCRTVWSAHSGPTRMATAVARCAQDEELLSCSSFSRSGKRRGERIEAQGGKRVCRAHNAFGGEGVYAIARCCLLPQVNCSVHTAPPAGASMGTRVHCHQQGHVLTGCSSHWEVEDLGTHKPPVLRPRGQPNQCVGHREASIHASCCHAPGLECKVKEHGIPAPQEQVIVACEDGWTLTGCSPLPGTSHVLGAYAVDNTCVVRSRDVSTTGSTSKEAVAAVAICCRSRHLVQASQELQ

Row | OD450 nm [1] | OD450 nm [2] | OD450 nm (PCSK9 bound to LDLR) [3] | OD450 nm [5] | OD450 nm [6] | OD450 nm [7] | OD450 nm [8] | OD450 nm (PCSK9 bound to LDLR) [9] | OD450 nm (PCSK9 bound to LDLR) [10] | OD450 nm [11] | OD450 nm (PCSK9 bound to LDLR) [12] | OD450 nm [13] | OD450 nm [14] | OD450 nm [15] | OD450 nm [16] | OD450 nm [17] | OD450 nm (PCSK9 bound to LDLR) [18] | OD450 nm [19] | OD450 nm [20] | OD450 nm (PCSK9 bound to LDLR) [21] | Binder | other results
1 | 2.82 OD450 nm | 0.21 OD450 nm | 0.7 OD450 nm | 0.19 OD450 nm | 0.26 OD450 nm | 0.18 OD450 nm | 0.27 OD450 nm | 0.59 OD450 nm | 1.18 OD450 nm | 0.23 OD450 nm | 1.29 OD450 nm | 0.2 OD450 nm | 0.21 OD450 nm | 2.85 OD450 nm | 2.88 OD450 nm | 2.66 OD450 nm | 1.19 OD450 nm | 2.85 OD450 nm | 0.81 OD450 nm | 0.55 OD450 nm | 76A1B11, chimeric anti-PCSK9 mAb purified from hybridoma (antibody, V domains shown, From Harbour H2L2 mice: human variable regions, rat constant regions) VH: QVQLVESGGGVVQPGRSLRLSCAATGFTFSIYGMHWVRQAPGKGLEWVAVIWYDGSNKYYADSVKGRFIISRDNSKNTLYLQMNSLRVEDTAVYYCVSDYFGSGNSYYYYGMDVWGQGTTVTVSS VL: DIQMTQSPSSLSASVGDRVTITCRASQVISNYLAWYQQKPGKVPKLLIYTASTLQSGVPSRFSGSGSGADFTLTISSLQPEDVATYYCQKYNSAPYTFGQGTKLEIK | OD450 nm [4]: 0.86 OD450 nm; OD450 nm [22]: 2.5 OD450 nm; OD450 nm (PCSK9 bound to LDLR) [23]: 0.96 OD450 nm
2 | 2.88 OD450 nm | 0.21 OD450 nm | 0.61 OD450 nm | 0.2 OD450 nm | 0.27 OD450 nm | 0.22 OD450 nm | 0.36 OD450 nm | 0.67 OD450 nm | 1.13 OD450 nm | 0.26 OD450 nm | 1.06 OD450 nm | 0.19 OD450 nm | 0.23 OD450 nm | 2.94 OD450 nm | 2.9 OD450 nm | 2.87 OD450 nm | 1.11 OD450 nm | 2.93 OD450 nm | 1 OD450 nm | 0.63 OD450 nm | 139G1C5, chimeric anti-PCSK9 mAb purified from hybridoma (antibody, V domains shown, From Harbour H2L2 mice: human variable regions, rat constant regions) VH: QVQLQESGPGLVKPSGTLSLTCAVSGGSISRNNWWSWVRQPPGKGLEWIGEIYHSGSTNYNPSLKSRVTISVDKSKNQFSLKLSSVTAADTAVYYCARDLLGIGLDYWGQGTLVTVSS VL: EFVLTQSPATLSLSPGERAILSCRASQSFSSYIAWYQQKPGQAPRLLIYDASNRATGIPARFSGSGSGTDFTLTISSLEPEDFAVYYCQQHSNWMYTFGQGTKLEIK | OD450 nm [4]: 1.55 OD450 nm; OD450 nm [22]: 2.67 OD450 nm; OD450 nm (PCSK9 bound to LDLR) [23]: 0.89 OD450 nm
3 | 2.67 OD450 nm | 0.21 OD450 nm | 0.94 OD450 nm | 0.33 OD450 nm | 0.2 OD450 nm | 0.17 OD450 nm | 0.25 OD450 nm | 0.74 OD450 nm | 1.2 OD450 nm | 0.21 OD450 nm | 1.26 OD450 nm | 0.18 OD450 nm | 0.27 OD450 nm | 2.91 OD450 nm | 2.93 OD450 nm | 2.42 OD450 nm | 1.17 OD450 nm | 2.91 OD450 nm | 0.35 OD450 nm | 0.7 OD450 nm | 152G2F7, chimeric anti-PCSK9 mAb purified from hybridoma (antibody, V domains shown, From Harbour H2L2 mice: human variable regions, rat constant regions) VH: EVQLVESGGGLVQPGGSLRLSCAASEFTFGGYWMTWVRQAPGKGLEWVANIKQDGSEKYYVDSVKGRFTISRDNAKNSLYLHMNSLRAEDTAVYYCARDRTTMIRGVSLYYYYYGMDVWGQGTAVTVSS VL: EIVLTQSPATLSLSPGERATLSCRASQSVSSYLAWYQQKPGQAPRLLIYDASNRATGIPARFSGSGSGTDFTLTISSLEPEDFAVYYCQQRSNWPLTFGGGTKVEIK | OD450 nm [4]: 0.6 OD450 nm; OD450 nm [22]: 1.25 OD450 nm; OD450 nm (PCSK9 bound to LDLR) [23]: 1.2 OD450 nm
4 | 2.86 OD450 nm | 0.17 OD450 nm | 0.78 OD450 nm | 0.21 OD450 nm | 0.27 OD450 nm | 0.22 OD450 nm | 0.3 OD450 nm | 0.68 OD450 nm | 1.3 OD450 nm | 0.34 OD450 nm | 1.34 OD450 nm | 0.19 OD450 nm | 0.18 OD450 nm | 2.99 OD450 nm | 2.89 OD450 nm | 2.89 OD450 nm | 1.2 OD450 nm | 2.98 OD450 nm | 0.76 OD450 nm | 0.55 OD450 nm | 74C10A8, chimeric anti-PCSK9 mAb purified from hybridoma (antibody, V domains shown, From Harbour H2L2 mice: human variable regions, rat constant regions) VH: QVQLQESGPGLVKPSETLSLTCSVSGGSINTYYWSWIRQPPGKGLEWIGYIYYSGSTNYNPSLKSRVTISVDTSKNQFSLKLTSVTAADTAVYYCARERFTMVRGVMMDYYYYGMDVWGQGTTVTVSS VL: DIQLTQSPSFLSASVGDRVTITCRASQGISSYLAWYQQKPGKAPKLLIYAASTLQSGVPSRFSGSGSGTEFTLTISSLQPEDFATYYCQQLNSYPRTFGQGTKVEIK | OD450 nm [22]: 2.53 OD450 nm; OD450 nm (PCSK9 bound to LDLR) [23]: 0.97 OD450 nm
